Several values for one entry are separate records, joined by “and”; a condition that tells them apart may be missing. Identical values can stand only once.
What was measured:
Assay in all cases: cell-based or functional assay
[1] = biological target: plasmin
[2] = biological target: trypsin
[3] = biological target: recombinant human tryptase (Promega) (human) (UniProt Q15661); conditions: scale: % of the activity in the absence of inhibitor
[4] = biological target: tissue kallikrein

Sequence of UniProt Q15661 (Q15661 31-275): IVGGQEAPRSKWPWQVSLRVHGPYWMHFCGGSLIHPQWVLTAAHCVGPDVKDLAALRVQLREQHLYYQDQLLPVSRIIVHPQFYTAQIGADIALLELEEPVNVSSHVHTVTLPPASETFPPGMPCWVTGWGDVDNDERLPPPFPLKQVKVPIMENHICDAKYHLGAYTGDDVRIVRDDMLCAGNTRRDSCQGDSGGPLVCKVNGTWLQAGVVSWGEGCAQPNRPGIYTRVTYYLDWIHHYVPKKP

| Substance | concentration corresponding with 50% plasmin inhibition (peptide release from resorufin-labelled casein); one of two values from two assumed molecular masses (12 kDa or 13.5 kDa) [1] | concentration for 50% trypsin inhibition (peptide release from resorufin-labelled casein); one of two values from two assumed molecular masses (12 kDa or 13.5 kDa) [2] | residual catalytic activity of tryptase (n-α-benzoyl-DL-Arg-p-nitroanilide, absorbance at 405 nm) after preincubation with rTdPI [3] | tissue kallikrein activity (n-benzoyl-Pro-Phe-Arg-pNA, absorbance at 410 nm); percent inhibition at 7.5 µM rTdPI (% inhibition at 7.5 µM) [4] | concentration corresponding with 50% plasmin inhibition (peptide release from resorufin-labelled casein) [1] | concentration for 50% trypsin inhibition (peptide release from resorufin-labelled casein) [2] |
| --- | --- | --- | --- | --- | --- | --- |
| Recombinant tick-derived protease inhibitor protein (rTdPI), histidine-tagged | 0.32 µM and 0.43 µM | 0.044 µM and 0.033 µM | 33 | 50 | – | – |
| soybean trypsin inhibitor (from UniProt P01070 25-205) | – | – | – | – | 0.23 µM | 0.026 µM |

From patent US6987168
